The source of these data is patent publication US20060039900A1 (Janssen / Centocor, published 2006).

Assay [1] has as its target T1, murine tissue factor from murine brain extracts (murine, UniProt P20352 29-294).
T1 sequence (looked up): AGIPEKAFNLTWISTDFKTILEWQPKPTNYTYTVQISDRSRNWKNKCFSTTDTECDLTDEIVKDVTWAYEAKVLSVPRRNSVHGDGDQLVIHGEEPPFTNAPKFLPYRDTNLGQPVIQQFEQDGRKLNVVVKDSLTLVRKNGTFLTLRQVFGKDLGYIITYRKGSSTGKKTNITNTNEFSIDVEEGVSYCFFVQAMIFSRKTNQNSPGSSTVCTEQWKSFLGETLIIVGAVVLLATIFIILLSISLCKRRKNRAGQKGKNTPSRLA
In words: cell-based or functional assay.

The target of assay [2] is T2, murine tissue factor on B6F10 melanoma cells (murine, UniProt P20352 29-294).
T2 construct: whole, on cells; also called cell-associated mTF
T2 sequence (looked up): T1 sequence (looked up)
Put plainly: flow cytometry (FACS) on B6F10 melanoma cells expressing mTF. (Flow cytometry measures light scatter and fluorescence of single cells or particles in a stream.)

As a reminder, the EC50 is the concentration at which the effect is half-maximal.

B1: PHD126 Fab (Fab, V domains shown)
VH: QVQLVQSGAEVKKPGESLKISCKGSYSFSNYWIGWVRQMPGKGLEWMGFIDPDDSDTNYSPSFQGQVTISADKSISTAYLQWSSLKASDTAMYYCARALYMQGGSFDSWGQGTLVTVSS
VL: DIELTQPPSVSVAPGQTARISCSGDNLGSYYVSWYQQKPGQAPVLVIYRDTDRPSGIPERFSGSNSGNTATLTISGTQAEDEADYYCQSYDYGVSNQVFGGGTKLTVLG
Turning to B1, the “EC50 Conc. (ug/ml) for human plasma (inhibition of fibrin clot formation, murine brain extracts as source of mTF)” value in assay [1] was 0.23 µg/mL.

B2: PHD104 Fab (Fab, V domains shown)
VH: QVQLVQSGAEVKKPGESLKISCKGSYSFTSNWIGWVRQMPGKGLEWMGWIYPSDSMTRYSPSFQGQVTISADKSISTAYLQWSSLKASDTAMYYCARYLFGLFDNWGQGTLVTVSS
VL: DIELTQPPSVSVAPGQTARISCSGDNLGSYYVSWYQQKPGQAPVLVIYNDNNRPSGIPERFSGSNSGNTATLTISGTQAEDEADYYCATYDSSTDVFGGGTKLTVLG
As for B2, the “EC50 Conc. (ug/ml) for human plasma (inhibition of fibrin clot formation, murine brain extracts as source of mTF)” value in assay [1] was found to be 23.8 µg/mL.

B3: PHD103 Fab (Fab, V domains shown)
VH: QVQLVQSGAEVKKPGESLKISCKGSGYSFSNSWIAWVRQMPGKGLEWMGGIIGPGHSYTKYSPSFQGQVTISADKSISTAYLQWSSLKASDTAMYYCARINMGYFDYWGQGTLVTVSS
VL: DIELTQPPSVSVAPGQTARISCSGDSLGLKKFVSWYQQKPGQAPVLVIYDDSNRPSGIPERFSGSNSGNTATLTISGTQAEDEADYYCGTYDQTIGHDVVFGGGTKLTVLG
As for B3, the “EC50 Conc. (ug/ml) for human plasma (inhibition of fibrin clot formation, murine brain extracts as source of mTF)” value in assay [1] was determined as 63.3 µg/mL.

B4: PHD127 Fab (Fab, V domains shown)
VH: QVQLVQSGAEVKKPGESLKISCKGSYSFTNSWISWVRQMPGKGLEWMGIIDPDDSYTSYSPSFQGQVTISADKSISTAYLQWSSLKASDTAMYYCARGAGYGRMFGDVWGQGTLVTVSS
VL: DIELTQPPSVSVAPGQTARISCSGDNLGSYYASWYQQKPGQAPVLVIYQDDNRPSGIPERFSGSNSGNTATLTISGTQAEDEADYYCGAYTYSTSWVFGGGTKLTVLG
notes: Human Fab from the HuCAL library
With B4, the EC50 in assay [2] came to 4.35 nM. Besides, the “EC50 Conc. (ug/ml) for human plasma (inhibition of fibrin clot formation, murine brain extracts as source of mTF)” value in assay [1] was 0.82 µg/mL.
